Bridge positions count the residues as written; N and C are the ends. Square brackets hold non-standard residues; d marks the D form. Ends that are not written are not given here. * marks the point of attachment. Acetyl(2-(4-imidazolyl)) = O=C(Cc1c[nH]cn1)*; Aib = CC(C)(N)C(=O)O
Experiments:
Test in all cases: cell-based or functional assay
human GIP receptor = target: T1, human GIP receptor (human, UniProt P48546 22-466)
T1 sequence (looked up): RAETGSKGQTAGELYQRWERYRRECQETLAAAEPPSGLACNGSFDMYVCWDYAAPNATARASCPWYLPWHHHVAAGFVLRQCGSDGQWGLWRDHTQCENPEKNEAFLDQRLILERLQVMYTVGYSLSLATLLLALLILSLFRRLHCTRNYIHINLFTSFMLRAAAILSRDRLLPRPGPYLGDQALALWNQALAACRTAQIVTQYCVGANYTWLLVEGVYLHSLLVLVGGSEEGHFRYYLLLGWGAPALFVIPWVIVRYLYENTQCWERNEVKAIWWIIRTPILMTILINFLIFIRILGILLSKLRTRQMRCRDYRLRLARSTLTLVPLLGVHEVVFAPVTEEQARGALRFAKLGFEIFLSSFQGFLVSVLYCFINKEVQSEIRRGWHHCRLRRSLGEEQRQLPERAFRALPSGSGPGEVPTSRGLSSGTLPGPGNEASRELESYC

human GCG receptor = human GCG receptor (human, UniProt P47871 26-477)
human GLP-1 receptor = human GLP-1 receptor (human, UniProt P43220 24-463)

Chain of human GCG receptor (P47871 26-477): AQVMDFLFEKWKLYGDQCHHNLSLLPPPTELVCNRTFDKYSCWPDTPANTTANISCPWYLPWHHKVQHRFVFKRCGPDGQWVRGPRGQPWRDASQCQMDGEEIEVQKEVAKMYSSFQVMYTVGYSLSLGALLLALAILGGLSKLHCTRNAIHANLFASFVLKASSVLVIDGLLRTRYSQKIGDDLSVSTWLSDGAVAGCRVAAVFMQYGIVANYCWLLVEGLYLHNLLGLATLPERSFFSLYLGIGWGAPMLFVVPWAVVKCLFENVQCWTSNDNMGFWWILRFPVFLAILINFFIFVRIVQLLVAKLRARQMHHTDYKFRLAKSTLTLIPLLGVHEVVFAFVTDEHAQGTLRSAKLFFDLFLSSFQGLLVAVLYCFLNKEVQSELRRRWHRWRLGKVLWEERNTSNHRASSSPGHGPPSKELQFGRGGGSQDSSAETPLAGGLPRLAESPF

Binder	In vitro activity compared with native peptide (%) vs GIP (cAMP EC50) (human GIP receptor)	In vitro activity compared with native peptide (%) vs Glucagon (cAMP EC50) (human GCG receptor)	In vitro activity compared with native peptide (%) vs GLP-1 (cAMP EC50) (human GLP-1 receptor)
[Acetyl(2-(4-imidazolyl))][Aib]QGTFTSDYSKYLDEKRQKEFVQWLLDTC (bridge 16-20) [triple agonist of SEQ ID NO: 82]	< 0.1%	1.1%	9.5%
Y[Aib]QGTFTSDYSKYLDEKAAKEFVQWLLDHHPSSGQPPPSC (bridge 16-20) [triple agonist of SEQ ID NO: 75]	18%	8.5%	35.1%
Y[Aib]QGTFTSDCSKYLDERAAKDFVQWLLDHHPSSGQPPPS (bridge 16-20) [triple agonist of SEQ ID NO: 72]	1.6%	1%	11.5%
Y[Aib]QGTFTSDYSKCLDEKAAKEFVQWLLDHHPSSGQPPPS (bridge 16-20) [triple agonist of SEQ ID NO: 68]	107%	8.8%	27.9%
H[Aib]QGTFTSDVSKYLDGQAAQEFVAWLLKGC [triple agonist of SEQ ID NO: 8]	< 0.1%	0.1%	14.2%
Y[Aib]QGTFTSDYSKYLDEKRAKDFVQWLLDHHPSSGQPPPSC (bridge 16-20) [triple agonist of SEQ ID NO: 76]	11.7%	47.6%	10.3%
{Acetyl(2-(4-imidazolyl))}-[Aib]QGTFTSDYSKYLDECRAKEFVQWLLDHHPSSGQPPPS (bridge 15-19) [triple agonist of SEQ ID NO: 73]	3%	5.4%	22.6%
Y[Aib]QGTFTSDYSKCLDEKRAKDFVQWLLDHHPSSGQPPPS (bridge 16-20) [triple agonist of SEQ ID NO: 70]	64.4%	71.3%	15.1%
H[Aib]QGTFTSDYSKCLDEKRAKEFVQWLLDHHPSSGQPPPS (bridge 16-20) [triple agonist of SEQ ID NO: 65]	11.6%	25.2%	95.4%
Y[Aib]QGTFTSDYSKYLDEKAAKDFVQWLLDHHPSSGQPPPSC (bridge 16-20) [triple agonist of SEQ ID NO: 77]	35.5%	12.2%	38.7%
Y[Aib]QGTFTSDYSKCLDERAAKEFVQWLLDHHPSSGQPPPS (bridge 16-20) [triple agonist of SEQ ID NO: 69]	62.8%	9.6%	24.3%
H[Aib]EGTFTSDYSIAMDEIHQKDFVDWLLAEKC (bridge 16-20) [triple agonist of SEQ ID NO: 80]	0.1%	0%	8.1%
H[Aib]QGTFTSDYSKYLDEKRQKEFVQWLLDTKC (bridge 16-20) [triple agonist of SEQ ID NO: 78]	0.12%	14%	51%
Y[Aib]QGTFTSDYSKYLDERACKDFVQWLLDHHPSSGQPPPS (bridge 16-20) [triple agonist of SEQ ID NO: 71]	94.7%	12.7%	90.1%
H[Aib]EGTFTSDYSIAMDEIHQKDFVNWLLAQKC (bridge 16-20) [triple agonist of SEQ ID NO: 79]	1.4%	4.9%	41.5%
Y[Aib]QGTFTSDYSKYLDECAAKDFVQWLLDHHPSSGQPPPS (bridge (positions not given here); ends not checked; also: ring formation between two underlined residues) [triple agonist of SEQ ID NO: 67]	39.8%	46.2%	28.5%
[Acetyl(2-(4-imidazolyl))][Aib]QGTFTSDYSKYLDEKRQKEFVQWLLNTC (bridge 16-20) [triple agonist of SEQ ID NO: 81]	< 0.1%	0.3%	7.8%
{Acetyl(2-(4-imidazolyl))}-[Aib]QGTFTSDYSKCLDEKRAKEFVQWLLDHHPSSGQPPPS (bridge 15-19) [triple agonist of SEQ ID NO: 74]	1%	0.9%	12.9%
Y[Aib]QGTFTSDYSKYLDECRAKDFVQWLLDHHPSSGQPPPS (bridge 16-20) [triple agonist of SEQ ID NO: 66]	17.2%	172%	15.8%

Reference: US20240293512A1 (HANMI PHARM, published 2024)
